# Columns and labels:
# [1] = target: M44-modified G NTAA target peptides (M44-G-P2-peptide); experiment: encoding assay; P2 G;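 note: fraction of recording tags encoded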
# [2] = target: M44-modified E NTAA target peptides; experiment: encoding assay; P2 H;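 note: fraction of recording tags encoded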
# [3] = target: M44-modified G NTAA target peptides (M44-G-P2-peptide); experiment: encoding assay; P2 H;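 note: fraction of recording tags encoded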
# [4] = target: M44-modified S NTAA target peptides; experiment: encoding assay; P2 H
# [5] = target: M44-modified H NTAA target peptides; experiment: encoding assay; P2 T;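 note: fraction of recording tags encoded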
# [6] = target: M44-modified W NTAA target peptides; experiment: encoding assay; P2 T;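 note: fraction of recording tags encoded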
# [7] = target: M44-modified S NTAA target peptides; experiment: encoding assay; P2 Y
# [8] = target: M44-modified A NTAA target peptides (M44-A-P2-peptide); experiment: Gini coefficient of P1 selectivity from multiplex encoding heatmap
# [9] = target: M17-modified A NTAA target peptides; experiment: encoding assay; P2 H;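 note: fraction of recording tags encoded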
# [10] = target: M17-modified D NTAA target peptides; experiment: encoding assay; P2 H;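 note: fraction of recording tags encoded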
# [11] = target: M17-modified E NTAA target peptides; experiment: encoding assay; P2 H;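 note: fraction of recording tags encoded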
# [12] = target: M17-modified F NTAA target peptides; experiment: encoding assay; P2 H;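 note: fraction of recording tags encoded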
# [13] = target: M17-modified G NTAA target peptides; experiment: encoding assay; P2 H;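 note: fraction of recording tags encoded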
# [14] = target: M17-modified H NTAA target peptides; experiment: encoding assay; P2 H;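 note: fraction of recording tags encoded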
# [15] = target: M17-modified I NTAA target peptides; experiment: encoding assay; P2 H;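 note: fraction of recording tags encoded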
# [16] = target: M17-modified L NTAA target peptides; experiment: encoding assay; P2 H;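 note: fraction of recording tags encoded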
# [17] = target: M17-modified M NTAA target peptides; experiment: encoding assay; P2 H;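 note: fraction of recording tags encoded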
# [18] = target: M17-modified N NTAA target peptides; experiment: encoding assay; P2 H;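 note: fraction of recording tags encoded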
# [19] = target: M17-modified P NTAA target peptides; experiment: encoding assay; P2 H;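 note: fraction of recording tags encoded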
# [20] = target: M17-modified Q NTAA target peptides; experiment: encoding assay; P2 H;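 note: fraction of recording tags encoded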
# [21] = target: M17-modified S NTAA target peptides; experiment: encoding assay; P2 H;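 note: fraction of recording tags encoded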
# [22] = target: M17-modified T NTAA target peptides; experiment: encoding assay; P2 H;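 note: fraction of recording tags encoded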
# [23] = target: M17-modified V NTAA target peptides; experiment: encoding assay; P2 H;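 note: fraction of recording tags encoded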
# [24] = target: M17-modified W NTAA target peptides; experiment: encoding assay; P2 H;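 note: fraction of recording tags encoded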
# [25] = target: M17-modified Y NTAA target peptides (M17-Y-P2-peptide); experiment: encoding assay; P2 H;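 note: fraction of recording tags encoded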
# [26] = target: M17-modified A NTAA target peptides; experiment: encoding assay; P2 T;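 note: fraction of recording tags encoded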
# [27] = target: M17-modified D NTAA target peptides; experiment: encoding assay; P2 T;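 note: fraction of recording tags encoded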
# [28] = target: M17-modified E NTAA target peptides; experiment: encoding assay; P2 T;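 note: fraction of recording tags encoded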
# [29] = target: M17-modified F NTAA target peptides; experiment: encoding assay; P2 T;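 note: fraction of recording tags encoded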
# [30] = target: M17-modified G NTAA target peptides; experiment: encoding assay; P2 T;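 note: fraction of recording tags encoded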
# [31] = target: M17-modified H NTAA target peptides; experiment: encoding assay; P2 T;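 note: fraction of recording tags encoded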
# [32] = target: M17-modified I NTAA target peptides; experiment: encoding assay; P2 T;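 note: fraction of recording tags encoded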
# [33] = target: M17-modified M NTAA target peptides; experiment: encoding assay; P2 T;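 note: fraction of recording tags encoded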
# [34] = target: M17-modified S NTAA target peptides; experiment: encoding assay; P2 T;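 note: fraction of recording tags encoded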
# [35] = target: M17-modified V NTAA target peptides; experiment: encoding assay; P2 T;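 note: fraction of recording tags encoded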
# [36] = target: M17-modified A NTAA target peptides; experiment: encoding assay; P2 Y;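 note: fraction of recording tags encoded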
# [37] = target: M17-modified D NTAA target peptides; experiment: encoding assay; P2 Y;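 note: fraction of recording tags encoded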
# [38] = target: M17-modified E NTAA target peptides; experiment: encoding assay; P2 Y;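 note: fraction of recording tags encoded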
# [39] = target: M17-modified F NTAA target peptides; experiment: encoding assay; P2 Y;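 note: fraction of recording tags encoded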
# [40] = target: M17-modified G NTAA target peptides; experiment: encoding assay; P2 Y;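 note: fraction of recording tags encoded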
# [41] = target: M17-modified H NTAA target peptides; experiment: encoding assay; P2 Y;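 note: fraction of recording tags encoded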
# [42] = target: M17-modified I NTAA target peptides; experiment: encoding assay; P2 Y;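 note: fraction of recording tags encoded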
# [43] = target: M17-modified L NTAA target peptides; experiment: encoding assay; P2 Y;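 note: fraction of recording tags encoded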
# [44] = target: M17-modified M NTAA target peptides; experiment: encoding assay; P2 Y;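 note: fraction of recording tags encoded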
# [45] = target: M17-modified N NTAA target peptides; experiment: encoding assay; P2 Y;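 note: fraction of recording tags encoded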
# [46] = target: M17-modified P NTAA target peptides; experiment: encoding assay; P2 Y;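 note: fraction of recording tags encoded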
# [47] = target: M17-modified Q NTAA target peptides; experiment: encoding assay; P2 Y;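 note: fraction of recording tags encoded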
# [48] = target: M17-modified S NTAA target peptides; experiment: encoding assay; P2 Y;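 note: fraction of recording tags encoded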
# [49] = target: M17-modified T NTAA target peptides; experiment: encoding assay; P2 Y;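 note: fraction of recording tags encoded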
# [50] = target: M17-modified W NTAA target peptides; experiment: encoding assay; P2 Y;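 note: fraction of recording tags encoded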
# [51] = target: M17-modified Y NTAA target peptides (M17-Y-P2-peptide); experiment: encoding assay; P2 Y;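 note: fraction of recording tags encoded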
# [52] = target: M17-modified W NTAA target peptides; experiment: encoding assay; P2 S;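 note: fraction of recording tags encoded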
# [53] = target: M17-modified W NTAA target peptides; experiment: encoding assay; P2 G;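 note: fraction of recording tags encoded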
# [54] = target: M17-modified M NTAA target peptides; experiment: encoding assay; P2 Q;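 note: fraction of recording tags encoded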
binder,measurement,setting,value
"engineered M44-A binder (SEQ ID NO: 42) (designed binder, not shown: small tags and cut ends; large carriers) QVSVQPNFQQDKFLGRWFVAGLASNSSWDREKVAALSGAKMVVAPATDGGLNVTRTMLRKNQCETYTGLLQPAGSLGSYSWRSPHPGSTGSESVVETDYDQYALVYGQGSKGPGEDLRAAALWSRTQTPRAELKEKFTAFSKAQGFTEDTIVFLPQTDKCMTEQ",encoding yield,[1],0.01
same,encoding yield,[2],0.03
same,encoding yield,[3],0.01
same,encoding yield,[4],0.01
same,encoding yield,[5],0.01
same,encoding yield,[6],0.01
same,encoding yield,[7],0.01
same,P1 score,[8],0.31
"engineered M44-L binder (SEQ ID NO: 31) (designed binder, not shown: small tags and cut ends; large carriers) QDSTQNLIPAPPLISVPLQPGFWTERFQGRWFLVGFAGNAVQKERQSRLTMQSLILELQEDNSYNITAINVRGQGCRYIISTLVPSSRPGQFTLGNIHSYPQIQSLDVQVADTDYDQFAMVFLQGTSENKQYFEVALAGRTKGLSDELKERFVSFAKSLGLKDNNIVFSVPTDQCIDN",encoding yield,[2],0.02
same,encoding yield,[3],0.01
same,encoding yield,[4],0.01
same,encoding yield,[5],0.02
same,encoding yield,[6],0.01
same,encoding yield,[7],0.01
"engineered M17-Y binder (SEQ ID NO: 61) (designed binder, not shown: small tags and cut ends; large carriers) TVPDRSEIAGKWYVVALASNTEFYLREKDWVKSAMARISFLGEDELKVSSAVPSPNGCYKVERTWKKTSDDGEVYNSRAAKLKVEVLDTDYKSYAVIYATRVKDGRTDHQMILYSRSPEVSPAATAIFRKLAGERNYTDEMVAMLPRQEECTVDEV",encoding yield,[9],0.02
same,encoding yield,[10],0.02
same,encoding yield,[11],0.01
same,encoding yield,[12],0.02
same,encoding yield,[13],0.01
same,encoding yield,[14],0.03
same,encoding yield,[15],0.03
same,encoding yield,[16],0.02
same,encoding yield,[17],0.02
same,encoding yield,[18],0.03
same,encoding yield,[19],0.03
same,encoding yield,[20],0.02
same,encoding yield,[21],0.01
same,encoding yield,[22],0.02
same,encoding yield,[23],0.03
same,encoding yield,[24],0.02
same,encoding yield,[25],0.07
same,encoding yield,[26],0.03
same,encoding yield,[27],0.01
same,encoding yield,[28],0.01
same,encoding yield,[29],0.06
same,encoding yield,[30],0.04
same,encoding yield,[31],0.01
same,encoding yield,[32],0.06
same,encoding yield,[33],0.01
same,encoding yield,[34],0.01
same,encoding yield,[35],0.03
same,encoding yield,[36],0.01
same,encoding yield,[37],0.03
same,encoding yield,[38],0.01
same,encoding yield,[39],0.09
same,encoding yield,[40],0.04
same,encoding yield,[41],0.06
same,encoding yield,[42],0.1
same,encoding yield,[43],0.1
same,encoding yield,[44],0.04
same,encoding yield,[45],0.03
same,encoding yield,[46],0.03
same,encoding yield,[47],0.01
same,encoding yield,[48],0.01
same,encoding yield,[49],0.04
same,encoding yield,[50],0.07
same,encoding yield,[51],0.15
"upgraded binder after additional maturation round (SEQ ID NO: 62) (designed binder, not shown: small tags and cut ends; large carriers) TVPDRSEIAGKWYVVALASNTEFYLRGKDRVKSAMVRISFQGEDELKVSSAVPSPNGCYKVERTWKKTSDDGEVYNSRAAKLKVEVLDTDYKSYAVIYATRVKDRRTDHQMILYSRSPDVSPAATAIFRKLAGERNYTDEMVAMLPRQEECTVDEV",encoding yield,[52],0.03
same,encoding yield,[53],0.04
same,encoding yield,[9],0.03
same,encoding yield,[10],0.03
same,encoding yield,[11],0.02
same,encoding yield,[12],0.02
same,encoding yield,[13],0.02
same,encoding yield,[14],0.02
same,encoding yield,[15],0.03
same,encoding yield,[16],0.02
same,encoding yield,[17],0.03
same,encoding yield,[18],0.03
same,encoding yield,[19],0.04
same,encoding yield,[20],0.03
same,encoding yield,[21],0.02
same,encoding yield,[22],0.03
same,encoding yield,[23],0.02
same,encoding yield,[24],0.03
same,encoding yield,[25],0.07
same,encoding yield,[54],0.01
same,encoding yield,[26],0.02
same,encoding yield,[27],0.02
same,encoding yield,[28],0.02
same,encoding yield,[29],0.08
same,encoding yield,[30],0.05
same,encoding yield,[31],0.02
same,encoding yield,[32],0.1
same,encoding yield,[33],0.02
same,encoding yield,[34],0.01
same,encoding yield,[35],0.05
same,encoding yield,[36],0.03
same,encoding yield,[37],0.03
same,encoding yield,[38],0.03
same,encoding yield,[39],0.1
same,encoding yield,[40],0.06
same,encoding yield,[41],0.06
same,encoding yield,[42],0.12
same,encoding yield,[43],0.11
same,encoding yield,[44],0.02
same,encoding yield,[45],0.02
same,encoding yield,[46],0.05
same,encoding yield,[47],0.01
same,encoding yield,[48],0.01
same,encoding yield,[49],0.04
same,encoding yield,[50],0.12
same,encoding yield,[51],0.21

# — patent publication US20230220589A1
